Measurements published in article PMC9584609.

Columns and labels:
[1] = target: ClC-2 tagged with mVenus and PAmCherry (human) (UniProt P51788); assay: native gel or EMSA; high-resolution clear native electrophoresis (hrCNE); lysate of transfected HEK293T cells in 0.1 M sodium phosphate with 0.5% digitonin or 20 mM DDM; 4-14% acrylamide gradient gel run at 4 °C; mVenus fluorescence scanned; VGLUTs and sialin with and without PNGaseF
[2] = target: bClC-K tagged with mVenus and PAmCherry (Bos taurus); assay: as above

Chain of ClC-2 tagged with mVenus and PAmCherry (P51788 2-898): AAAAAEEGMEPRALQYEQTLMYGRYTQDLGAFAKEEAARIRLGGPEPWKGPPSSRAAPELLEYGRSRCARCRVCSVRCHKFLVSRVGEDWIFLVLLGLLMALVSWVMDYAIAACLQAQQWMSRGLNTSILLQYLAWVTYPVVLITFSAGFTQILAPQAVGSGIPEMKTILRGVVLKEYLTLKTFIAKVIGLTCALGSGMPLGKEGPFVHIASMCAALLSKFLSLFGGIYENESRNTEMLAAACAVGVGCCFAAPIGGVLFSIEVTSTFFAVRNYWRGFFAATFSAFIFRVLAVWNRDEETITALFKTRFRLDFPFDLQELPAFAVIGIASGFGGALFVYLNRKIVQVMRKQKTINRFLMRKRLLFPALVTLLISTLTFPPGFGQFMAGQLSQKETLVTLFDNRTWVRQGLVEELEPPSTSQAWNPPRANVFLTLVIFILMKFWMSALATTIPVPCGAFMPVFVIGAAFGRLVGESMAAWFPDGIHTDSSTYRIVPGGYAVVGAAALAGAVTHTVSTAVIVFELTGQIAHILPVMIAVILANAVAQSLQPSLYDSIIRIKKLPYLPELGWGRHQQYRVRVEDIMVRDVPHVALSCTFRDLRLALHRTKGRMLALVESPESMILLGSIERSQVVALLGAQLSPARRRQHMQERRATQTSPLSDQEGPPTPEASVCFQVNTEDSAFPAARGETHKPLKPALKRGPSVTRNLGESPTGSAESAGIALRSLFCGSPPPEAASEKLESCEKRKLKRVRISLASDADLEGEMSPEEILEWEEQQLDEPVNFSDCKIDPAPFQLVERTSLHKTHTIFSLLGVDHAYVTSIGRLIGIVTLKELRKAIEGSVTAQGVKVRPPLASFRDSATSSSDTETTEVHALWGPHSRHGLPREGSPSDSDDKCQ

Row | stoichiometry N [1] | stoichiometry N [2] | Substance
1 | 2 |  | ClC-2 tagged with mVenus and PAmCherry (from UniProt P51788 1-898) (natural protein)
2 |  | 2 | bClC-K tagged with mVenus and PAmCherry (natural protein)
